Source: article PMC6874894

System: CTCF
Assay: EMSA

Row | Substance | binding signal (% increase in binding vs G allele (N3)) | binding signal (% increase in binding vs G allele (N1))
1 | 230 bp probe rs150502618-A | 8 | 
2 | 50 bp probe rs150502618-A |  | 15
